assay: soluble on expression in E. coli; label from the status in PepcDB or PDB records

Sequence | soluble on expression in E. coli
MAGAAAAVAAGAAAGAAAAAVSVAAPGRASAPPPPPPVYCVCRQPYDVNRFMIECDICKDWFHGSCVGVEEHHAVDIDLYHCPNCAVLHGSSLMKKRRNWHRHDYTEIDDGSKPVQAGTRTFIKELRSRVFPSADEIIIKMHGSQLTQRYLEKHGFDVPIMVPKLDDLGLRLPSPTFSVMDVERYVGGDKVIDVIDVARQADSKMTLHNYVKYFMNPNRPKVLNVISLEFSDTKMSELVEVPDIAKKLSWVENYWPDDSVFPKPFVQKYCLMGVQDSYTDFHIDFGGTSVWYHVLWGEKIFYLIKPTDENLARYESWSSSVTQSEVFFGDKVDKCYKCVVKQGHTLFVPTGWIHAVLTSQDCMAFGGNFLHNLNIGMQLRCYEMEKRLKTPDLFKFPFFEAICWFVAKNLLETLKELREDGFQPQTYLVQGVKALHTALKLWMKKELVSEHAFEIPDNVRPGHLIKELSKVIRAIEEENGKPVKSQGI | soluble
MAGDPMEAIMKKLIGIATAAVFGLGIFTSSANAETVVTTDVLNVRENPTTESKVVGKLLNGNKIDVQNTENGWSKITLDGKDAFVSAEFTKSIYYVTANVLNVRAEANTNSEVLGKLKKDDVIETTNQVQNEWLQFEYNGKTAYVHVPFLTGTAPVIEKQETTAPAKAAAPAKAQAPVAQAKPAAKPAVKAAETNTPSGGRELTVVATAYTAHPSENGGTYGGRVLTAMGHDLTANPNMKMIAVDPKVIPLGSKVWVEGYGEAIAGDTGGAIKGTRIDILLGSDSAAQKWGRKTVKVKILKLEHHHHHH | not soluble
MAGDPMKLQKSNHTILLVLEKGEDIVECITTFADDQDLTFTSVSGIGACDDVVLKFFNLTTKQYEEKHITEPLELTSLLGNISRLDNGHFAHLHATFGTQSYETFSGHLAKAIVSATAEIILTVTDLDIQRSFKDAVGLNLLDPQLEHHHHHH | soluble
MAGDPMSIPFFSFSWAVMSNLTYLQGYPEQLLSQVRTLINEQRLGDVLAKRYPGTHDYATDKALWQYTQDLKNQFLRNAPPINKVMYDNKIHVLKNALGLHTAVSRVQGSKLKAKAEIRVATVFRNAPEPFLRMIVVHELAHLKEKEHNKAFYQLCCHMEPQYHQLEFDTRLWLTQLSLGQDKILEHHHHHH | not soluble
MAGDPMVIIHMIPKKIHYCWFGKGKHSKEMKKCIKSWKKYCPDYEIIEWNESNFDISAHPFVKAAYEAKAWAFVSDYARLKIIYDYGGVYLDTDVELIRNIDFLLQNDAYLGVEAQDWLCNTGLGFGAKKHNSIIAEMLQIYNEIEFDNSKKSTIACPYLNTAVVEKIGYKKQDRIQQLDKITIYPPKYFDPFPSGGSVSILICDETVSIHHYSASWGSWKNKLKRRIARFIGPKLTFKLKKLKIFLITRKLEHHHHHH | soluble
MAGDPMYSLFQEGRKMKNTAFLITKNHYPKDYRLKKSPDSDSAMGVAKRILAEVMIFRRVPETISLCGTGCQKCASPHLPKIISAVNKNEPVTFILPAFPGKSPNPEKVLGHLPDHAERLSLNFLGTLCQRIKNFYTPGIKIILCSDGRVFSDVVGMNESDVTAYQLELDRLIKEMSLADLSTFNLDYFYKDLHFVQMREELMKSYGQSLDFLKQKIRNGAKPSASPDEQEANRMYSGITRFLFEDAMHAGQTKSRTAIQKESRFKAYEVIRRSNAWSALIAERFPKAVRLSIHPQTCGSKKLGIRLIGNESWMTPWHGVAVESNKGYVLLRRSEAEALGAKLICSSDGRHSHYQLMAEVSYELAAALEHHHHHH | soluble
MAGDPNSMTVSHHNASTARFYALRLLPGQEVFSQLHAFVQQNQLRAAWIAGCTGSLTDVALRYAGQEATTSLTGTFEVISLNGTLELTGEHLHLAVSDPYGVMLGGHMMPGCTVRTTLELVIGELPALTFSRQPCAISGYDELHISSRLEHHHHHH | soluble
MAGQSKIIVGGVIGGTSEQEPKGFLDLPVELYQKIIGKLDLHERFRVRKSNQTLRQFIDQMDPAISQIRVSISDSDKCDDWVSRSVRVMAEMLSSSIYPDVKNISTCGLPSSQIAQILPSFQAGKLENLDLYYCGKPTAEDMETIVNSDQWKNAKNISGFRGLSNIRIKDLLHFSLVCVDYATISVETAIEIKDILLTSSNIKHAYFTSKSVLDVNVIRVFDPKAAKVHRKRNLSNLVRNTDFADFTFSSNQKVLRFKKKN | not soluble
MAGVKAYELRTKSKEQLASQLVDLKKELAELKVQKLSRPSLPKIKTVRKSIACVLTVINEQQREAVRQLYKGKKYQPKDLRAKKTRALRRALTKFEASQVTEKQRKKQIAFPQRKYAIKA | soluble
MAHAAAVEENQLQSLKDVAKQAPVHRKLDIQEWKTAEGAKVLFVEAHELPMFDLRLTFAAGSSQDAGTPGLSMLTNAMLNEGVPGKDTTAIAAGFEDLGASFSNGSYRDMAVAGLRSLSEADKRTQALKLFEQVIGQPTFPEDALARIKNQVLAGFEYQKQNPGKLAGLELFKRLYGEHPYAHSSDGDEKSVPTISREQLQAFHKKAYAAGNVVIALVGDLSRQEAEAIAAEVSKALPQGPALAKTVQPETPKPGLTHIDFPSEQTHLMLAQLGIDRQDPDYAALYLGNQILGGGGFGTRLMDQVREKRGLTYGIYSGFTAMQARGPFMINFQTRAELSEGALKLVQDIVRDYLANGPTQKELDDAKRELAGSFPLSTASNADIVGQLGAIGFYGLPLDYLESFLKQVEGLSVEQVRTAMAKHLDADAFVIVSAGPSVPQKLEHHHHHH | not soluble
MAHHHHHHMAAFKPYRFIIFDQQIKNNQFYKSIITQLNLSLLCKEIYLNESFSCYQYEKLFLKKLVYYSFNNLGNNLKAREIKCSGHSSVDTGEHKLQQLINNVNKNENKNININKNINKNINKNVNINNADHNKCSDNSSDYHNFYENECMNNLNLINDLGDRHKNHPLYNVMMKNKKKELTTQSDINKLVSFHIYDNKNEKTFKNILSLNDTYNIDHMNILCLNNYKPIFNMLENYSINNKRISIYYPFYIINDDKNNKPQSNLYTKVADYCYNIVSDILPLNYKNINLSDIIKAIIINTELCQNEGNERMEVLKFMDIMDIIGKN | soluble
MAHHHHHHMAANGCFIAALIARTHDRLPLCSYTDDNYSNANVIRQQEQRIVERMESPAGGTDRAAAKGSYYESFDHKDNVYFAFQDAATDLTLVVAVNKLLLRNSGDINGMNKLACGLLDLIFSEFIQMYTPAEIGAPNVRAYQFIKFDATLRKCVTRIMQQDRTTGDRIV | not soluble
MAHHHHHHMADSYENDEDVLQMIQQIKKITKESKRKFENEIDYLVEDTKTNLLTHVDDEKNCIKKEAEEKLNSYRENLIKYEKGINEKRRHYLKLKAELATVVNNYKKRMKVGPACTCVERFTCACGEVYTRVEVYTLVKLHTLVKPPTRLLSPQDFNQETENFKQTYEREKKELEDLEDREWSELNTHCVELLSKTKSNICATKNETNKKLRKVLNSIM | not soluble
MAHHHHHHMADTHFFAEANVLDDPRETTNAYKEIKYDLLRIERSINTEVRKRIEANKNIQQLIEHTANDMINKVLNKITTKIENISFELDKIIKKCDELEKMVGQIRLTLPTKIQTEMMGLKREVSDFFILLNKYANNRKKRNNVLFSKMENMNAYVSNKIHSEVSFTEDDFLFFRRESAKLLASDSDDEQGFRDAFLQEVEEIRDALALTVKAREQSDDDIIQVGAVRCGGAVQRCDVMRWDETRWAYFR | not soluble
MAHHHHHHMADYGWTRGKLPKFRARSPFHRQQIARRMVTEMIRKDYCIVGGARAPALRILADHVVELAKAGDTDSRQQLAYFLHDPLMVDKAFDEYPRRFKDMNAKYAMMTRLKSRRRTDAVAMYFVEYKNRDMSDNHKGEDYSAGPERFFLPPRIVETEKGIQRPPHMQMAFDRWASKFKTEEFHHWWRLRHAKLRYWGVRNVPHPSDVDPLWTEKEEEEWHNEMLANTGEYEDLDLDDESYTAAGEGGEPSPAGDGPQPQRVG | not soluble
MAHHHHHHMAEQFTEDIGVVNKRLLEPVPFVKTNNCIKDVDADLFIRSYATHLKLHNKITYPKWCTFVKTGKGRKLAPLNEDWYFIRASSILRRLYLHPDIGVGFLRRQFSSKQRRGVAPNHTSLASGKILRSILQQLENLGYVEQNPKKKGRRLTTKGENAINNFARYINKKVYNKE | not soluble
MAHHHHHHMAHGSFDAVRKEMETQEKIIATLQRDNESLLREKKEILSRCKQLEHDFEHLEAKHSLLLSAQQDFAVRSNMHTANDSAKIVNLQAQVEELQTNLETEKRRCALLLQERNDLAQSKSDTPSLVGSAEITNVAVVREQQGRSEDIVAKLRESQRIHSIQKSTIDALHSEVTRLESERKVSHSRESNLLREVDSLRTQVRDLESALQQKKGGIRELMSSCQAGSANAQRLKKQETRIRLLEKALLEKDEFTKRAMEELRAEAKKVCERYQSTVAELRQRLEVPKDDPELQKRISTLERENLDLRRALGGASVSLAVESAQPVQKLATEPKHHTDVTDKADKPGGQALKAPGSHELEITHLHSVIERLRAEICEHKQRNITLQSKLDSIHAEWDARLAEMKTNFALQIQTLRSAHNEELSRLEASHQTQLLEISKCSKADRGDSLASRLSRIVEEKGYDASLIAIGERLCFLEKRYCQKEEEKTHELLEMKRVAELEMKIQKEKTDLLLEQKNTQIKRFQVQLDELLAALSILQATS | not soluble
MAHHHHHHMAPQSPSEWDNARRAAKRALTISDEYPPATVERIQKLLQRAETTSNDAVLLSELKSLVQSYFQSPQSLQFLRKERVASKGGGIGVVAARKIPAFSIIGVYPGYLDFMSGEQAKCGRPVPKYALMEYNCANYFNEVFVELQTTFTPFINEPNVDEKSNCAWIQEPHRKNGRLSVICVRDIQEGEELTIGYGPIYPRTYPYCYDAYACHQIEGHTTHPCYSLWHWPTLQEADARFVCHIGYIERDDCYVLWKNET | not soluble
MAHHHHHHMARRPSRCYRFCKNKPYPKSRFCRGVPDPKIRNFDIGRRRATVDEFPVCIHVVSRELEQIASEALEAARIQANKYMVKRANKDVFHMRTRAHPFHVLRINKMLSCAGADRLQTGMRGAFGKPNGVCARVRIGQILLSMRTKEAYVPQAFEALRRAKMKFPGRQIIVMSKYWGFTNILRTEYEALRDAGKLEQRGTHCKLIAPKGKITMRNVMA | not soluble
MAHHHHHHMAYGDDSKIVEGIVGERNIYKRREESTETNPFQSKHKKRLLFVLDVSASMYRFEGMDHRLSKLLESTVMVMEAFAGFEEKIDYAMVGHNGDSACIELVSFGHSPANQKARMEVCQRMVAHAQYCWSGDNTVEAMRQSIDLVTAEKGDAYLVFVISDANLPRYGIQPSELSAIMRSHKEVQMFCIFIATLGEQASNLQAEMPPGHGFECLDTQALPHILKQIFFSVNLL | not soluble
MAHHHHHHMCLDWKYNYMKTRLKVLENNEKDEEIERKLQNNLNIKSLGYVLKAIEILKRKEKMKRYSTFDRHLSYFKKNNINKPQYNEKKILEHRLWAIGCELIEVIGDGNCLFRSISRNLFHKQKYHMYVRKKCVEYMINYKEEYSIYFENNEFQQYIKNMSKNGYWGDELCIKATADAFDCIIYIITSTLENWHLKYESKNNNGMYKKCVFLAYSSPTHYDCFKLMQR | not soluble

Reference: the DeepSol protein solubility set
